Target: TGFβ receptor complex of wild type TβRII and kinase-deficient TβRI (KR) (Homo sapiens (Human)) (UniProt P37173)
Assay: anti-Flag IP of [125I]TGFβ affinity-labelled receptors, gamma counting; reference: without Smad2

- fold enhancement of receptor binding by coexpressed Smad2: 2 fold
Substance: Flag-tagged hSARA1

— patent US7105636B1
